Source: US20190248877A1 (Hoffmann-La Roche, published 2019)

Columns and labels:
Experiment in all cases: SPR ProteOn XPR36, biotinylated antigen on NLC chip, Fab as analyte, 25 C
[1] = molecular target: T1, GST huTNC fn5 A1234 fn6 B (human, biotin on the C-terminal avi-tag (BirA, site-specific))
T1 chain: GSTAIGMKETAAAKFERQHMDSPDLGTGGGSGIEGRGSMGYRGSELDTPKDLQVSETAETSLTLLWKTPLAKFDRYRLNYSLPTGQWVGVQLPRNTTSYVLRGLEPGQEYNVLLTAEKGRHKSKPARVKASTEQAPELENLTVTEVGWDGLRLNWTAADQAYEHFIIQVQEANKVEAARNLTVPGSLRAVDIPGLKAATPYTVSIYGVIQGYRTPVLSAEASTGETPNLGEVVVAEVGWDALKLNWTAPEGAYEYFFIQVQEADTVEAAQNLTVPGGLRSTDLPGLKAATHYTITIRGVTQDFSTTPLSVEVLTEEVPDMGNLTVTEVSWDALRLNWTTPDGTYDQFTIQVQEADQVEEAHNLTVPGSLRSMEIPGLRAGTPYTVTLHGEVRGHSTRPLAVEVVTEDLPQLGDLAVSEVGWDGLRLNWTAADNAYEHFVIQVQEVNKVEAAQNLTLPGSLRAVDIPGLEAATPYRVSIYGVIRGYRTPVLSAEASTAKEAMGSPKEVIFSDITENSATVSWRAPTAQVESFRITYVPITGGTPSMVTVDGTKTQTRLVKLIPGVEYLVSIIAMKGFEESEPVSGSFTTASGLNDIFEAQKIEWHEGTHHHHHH
Description: (§1) Immobilization of antigens (ligand): Recombinant antigens were diluted with PBST (10 mM phosphate, 150 mM sodium chloride pH 7.4, 0.005% Tween 20) to 10 μg/ml, then injected at 30 μl/minute in vertical orientation. Injection of analytes: For ‘one-shot kinetics’ measurements, injection direction was changed to horizontal orientation, two-fold dilution series of purified Fab were injected simultaneously along separate channels 1-5, with association times of 200 s, and dissociation times of 240 s, respectively. Buffer (PBST) was injected along the sixth channel to provide an “in-line” blank for referencing. Association rate constants (kₒₙ) and dissociation rate constants (koff) were calculated using a simple one-to-one Langmuir binding model in ProteOn Manager v3.1 software by simultaneously fitting the association and dissociation sensorgrams. The equilibrium dissociation constant (KD) was calculated as the ratio koff/kₒₙ.

[2] = molecular target: T2, GST huTNC fn5 A1234 BC fn6 B (human, UniProt P24821 984-1798, biotin on the C-terminal avi-tag (BirA, site-specific))
T2 construct: also called Human GST-fused TnC fn5 A1234 BC fn6
T2 sequence: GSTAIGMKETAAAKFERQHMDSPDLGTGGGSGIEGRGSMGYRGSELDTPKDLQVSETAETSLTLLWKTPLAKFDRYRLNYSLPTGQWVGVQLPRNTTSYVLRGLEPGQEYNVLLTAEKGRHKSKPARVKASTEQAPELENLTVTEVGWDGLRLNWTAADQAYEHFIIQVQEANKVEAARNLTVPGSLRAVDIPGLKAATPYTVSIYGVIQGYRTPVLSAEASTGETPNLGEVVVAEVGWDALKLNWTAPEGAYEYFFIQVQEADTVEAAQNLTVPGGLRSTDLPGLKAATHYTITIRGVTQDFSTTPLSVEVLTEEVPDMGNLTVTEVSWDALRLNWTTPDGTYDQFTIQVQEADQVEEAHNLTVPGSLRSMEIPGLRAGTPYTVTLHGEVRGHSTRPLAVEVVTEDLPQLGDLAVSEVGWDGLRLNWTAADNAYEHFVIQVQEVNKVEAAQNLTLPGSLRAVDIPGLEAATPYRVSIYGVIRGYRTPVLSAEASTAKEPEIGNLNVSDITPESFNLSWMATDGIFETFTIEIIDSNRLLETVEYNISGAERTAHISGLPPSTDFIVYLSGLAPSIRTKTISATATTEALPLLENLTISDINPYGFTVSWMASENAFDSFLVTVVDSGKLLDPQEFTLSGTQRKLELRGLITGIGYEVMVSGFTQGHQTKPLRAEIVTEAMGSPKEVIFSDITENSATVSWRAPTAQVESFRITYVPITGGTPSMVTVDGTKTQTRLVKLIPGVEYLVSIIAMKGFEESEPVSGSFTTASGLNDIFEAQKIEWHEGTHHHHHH
Description: as §1

huTNC A4 B = molecular target: T3, huTNC A4 B (human, biotin on the C-terminal avi-tag (BirA, site-specific))
T3 chain: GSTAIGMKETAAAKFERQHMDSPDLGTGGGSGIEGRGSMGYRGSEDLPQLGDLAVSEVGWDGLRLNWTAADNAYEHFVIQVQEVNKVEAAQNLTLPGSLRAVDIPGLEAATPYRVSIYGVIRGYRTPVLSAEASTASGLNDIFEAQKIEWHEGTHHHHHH
Description: as §1

[3] = molecular target: GST huTNCfn5 mu A124 BC hu fn6 B (human fn5 and fn6, murine extra splice …, biotin on the C-terminal avi-tag (BirA, site-specific))
Description: as §1

huTNC A1 B = molecular target: T4, huTNC A1 B (human)
T4 chain: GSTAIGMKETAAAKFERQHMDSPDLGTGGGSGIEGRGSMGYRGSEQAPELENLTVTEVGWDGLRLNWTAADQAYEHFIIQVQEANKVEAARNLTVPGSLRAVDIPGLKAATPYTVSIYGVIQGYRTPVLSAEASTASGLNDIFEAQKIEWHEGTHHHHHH
Description: as §1

B1: anti-TnC clone 18D4 Fab fragment (Fab, V domains shown)
VH: QVQLVQSGAEVKKPGSSVKVSCKASGGTFSSYAISWVRQAPGQGLEWMGGIIPIFGTANYAQKFQGRVTITADKSTSTAYMELSSLRSEDTAVYYCAKGNFYGGLDYWGQGTTVTVSS
VL: DIQMTQSPSTLSASVGDRVTITCRASQSISSWLAWYQQKPGKAPKLLIYDASSLESGVPSRFSGSGSGTEFTLTISSLQPDDFATYYCQQNKKFPSGTFGQGTKVEIK
Kd [1]: 5 nM | Kd [2]: 4 nM | Kd (huTNC A4 B): 2 nM | Kd [3]: 11.2 nM | Kd (huTNC A1 B): 5.6 nM
